In publication PMC12509985, “Phosphoglycerate dehydrogenase interacts with and inhibits the protein kinase TAK1 to mitigate septic shock” (The Journal of Biological Chemistry, 2025):
Changes are numbered by the printed parent chain. Names and notes keep the numbering of the source. Values joined by “and” are separate entries in the source; they are usually repeats but may differ in a detail not shown here. Equal values may be shown once.

B1: PHGDH-Flag, expressed in PHGDH-KO peritoneal macrophages (enzyme, UniProt Q61753 1-533, looked up)
chain: MAFANLRKVLISDSLDPCCRKILQDGGLQVVEKQNLSKEELIAELQDCEGLIVRSATKVTADVINAAEKLQVVGRAGTGVDNVDLEAATRKGILVMNTPNGNSLSAAELTCGMIMCLARQIPQATASMKDGKWDRKKFMGTELNGKTLGILGLGRIGREVATRMQSFGMKTVGYDPIISPEVAASFGVQQLPLEEIWPLCDFITVHTPLLPSTTGLLNDSTFAQCKKGVRVVNCARGGIVDEGALLRALQSGQCAGAALDVFTEEPPRDRALVDHENVISCPHLGASTKEAQSRCGEEIAVQFVDMVKGKSLTGVVNAQALTSAFSPHTKPWIGLAEAMGTLMHAWAGSPKGTIQVVTQGTSLKNAGTCLSPAVIVGLLREASKQADVNLVNAKLLVKEAGLNVTTSHNPGVPGEQGSGECLLTVALAGAPYQAVGLVQGTTPMLQMLNGAVFRPEVPLRRGQPLLVFRAQPSDPGMLPTMIGLLAEAGVQLLSYQTSMVSDGEPWHVMGLSSLLPSLETWKQHVLEAFQFCF
notes: phosphoglycerate dehydrogenase (PHGDH); also called WT PHGDH; PHGDH-HA (methods); source: PHGDH-KO mouse peritoneal macrophages, transfected 48 h, in lysate
B2: PHGDH, endogenous in mouse peritoneal macrophages (enzyme, UniProt Q61753 1-533, looked up)
chain: B1 chain
notes: phosphoglycerate dehydrogenase (PHGDH), endogenous in mouse peritoneal macrophages; Seen as tetramers and dimers after cross-linking of the lysate; also called endogenous PHGDH; source: endogenous, mouse peritoneal macrophage (PM) extract
B3: PHGDH (V425M)-Flag, expressed in PHGDH-KO peritoneal macrophages (enzyme, UniProt Q61753 1-533, looked up)
chain: B1 chain with V425M
notes: phosphoglycerate dehydrogenase (PHGDH) with V425M made by site-directed mutagenesis; also called PHGDH (V425M)-HA (methods); source: PHGDH-KO mouse peritoneal macrophages, transfected 48 h, in lysate

Legend:
[1] = biological target: the molecule itself; assay: cross-linking; lysate of PHGDH-KO PMs transfected with PHGDH or PHGDH (V425M) for 48 h; 0.25 mM cross-linker (DSS in the legend, dimethyl suberimidate in the methods), room temperature 10 min; Western blot
[2] = biological target: the molecule itself; assay: cross-linking; lysate of WT PMs (native lysis buffer), untreated or pretreated with 15 μM CBR-5884 for 6 h; 0.25 mM cross-linker (DSS in the legend, dimethyl suberimidate in the methods), room temperature 10 min; Western blot of PHGDH

Protein | stoichiometry N [1] | stoichiometry N [2]
B1 | 4 | –
B2 | – | 4 and 2
B3 | 4 and 2 | –
